Patent US9340584 (GENERAL HOSPITAL, dated 2016)

Columns and labels:
[1] = molecular target: T1, control CD19 protein (UniProt P15391 20-291, limits assumed); test: phage ELISA
T1 sequence (looked up): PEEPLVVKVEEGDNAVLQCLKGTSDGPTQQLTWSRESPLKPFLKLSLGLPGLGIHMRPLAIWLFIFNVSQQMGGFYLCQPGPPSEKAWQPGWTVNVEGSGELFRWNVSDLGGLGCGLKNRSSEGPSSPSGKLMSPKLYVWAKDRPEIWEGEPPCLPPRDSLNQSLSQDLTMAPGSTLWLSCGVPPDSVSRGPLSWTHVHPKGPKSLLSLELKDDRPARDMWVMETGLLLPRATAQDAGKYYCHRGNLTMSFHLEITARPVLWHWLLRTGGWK

[2] = molecular target: T2, CD5 expressed on the cell surface (transfected HEK293T cells; Raji cells ectopically expressing wild type CD5) (UniProt P06127 25-495, limits assumed); test: cell-based or functional assay
T2 sequence (looked up): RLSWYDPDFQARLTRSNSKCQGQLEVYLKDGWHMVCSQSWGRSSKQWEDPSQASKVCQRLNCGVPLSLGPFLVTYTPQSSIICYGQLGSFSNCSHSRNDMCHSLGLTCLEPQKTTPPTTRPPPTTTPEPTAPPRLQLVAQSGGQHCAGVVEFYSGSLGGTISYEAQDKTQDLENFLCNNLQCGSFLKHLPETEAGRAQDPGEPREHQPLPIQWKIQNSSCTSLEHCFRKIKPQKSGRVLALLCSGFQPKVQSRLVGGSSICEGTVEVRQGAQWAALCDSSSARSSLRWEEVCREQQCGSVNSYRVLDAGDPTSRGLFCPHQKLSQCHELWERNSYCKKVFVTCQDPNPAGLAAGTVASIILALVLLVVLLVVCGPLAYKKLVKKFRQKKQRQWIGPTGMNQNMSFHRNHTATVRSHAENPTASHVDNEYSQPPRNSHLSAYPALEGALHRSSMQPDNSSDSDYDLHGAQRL

[3] = molecular target: T3, mouse serum albumin (mouse, UniProt P07724 25-608, biotinylated); test: phage ELISA, MSA-biotin on streptavidin plate
T3 construct: also called MSA; MSA-biotin
T3 sequence (P07724 25-608 limits assumed): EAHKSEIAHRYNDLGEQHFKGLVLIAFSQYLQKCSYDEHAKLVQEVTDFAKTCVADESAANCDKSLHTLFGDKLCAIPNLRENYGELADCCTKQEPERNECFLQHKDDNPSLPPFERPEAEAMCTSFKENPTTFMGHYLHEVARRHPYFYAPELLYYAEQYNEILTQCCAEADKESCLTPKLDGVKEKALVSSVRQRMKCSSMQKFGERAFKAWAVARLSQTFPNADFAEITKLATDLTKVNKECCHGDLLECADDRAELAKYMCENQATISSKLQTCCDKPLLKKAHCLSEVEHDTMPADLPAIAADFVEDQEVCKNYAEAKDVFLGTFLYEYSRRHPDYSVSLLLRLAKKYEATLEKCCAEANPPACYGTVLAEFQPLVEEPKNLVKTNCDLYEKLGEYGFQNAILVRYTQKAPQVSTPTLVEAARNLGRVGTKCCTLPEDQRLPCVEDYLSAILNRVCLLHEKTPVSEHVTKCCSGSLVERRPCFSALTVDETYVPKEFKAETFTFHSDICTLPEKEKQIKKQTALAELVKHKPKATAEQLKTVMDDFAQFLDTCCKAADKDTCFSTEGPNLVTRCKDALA

[4] = molecular target: T4, rat serum albumin (rat, UniProt P02770 25-608, biotinylated); test: phage ELISA, RSA-biotin on streptavidin plate
T4 construct: also called RSA; RSA-biotin
T4 sequence (P02770 25-608 limits assumed): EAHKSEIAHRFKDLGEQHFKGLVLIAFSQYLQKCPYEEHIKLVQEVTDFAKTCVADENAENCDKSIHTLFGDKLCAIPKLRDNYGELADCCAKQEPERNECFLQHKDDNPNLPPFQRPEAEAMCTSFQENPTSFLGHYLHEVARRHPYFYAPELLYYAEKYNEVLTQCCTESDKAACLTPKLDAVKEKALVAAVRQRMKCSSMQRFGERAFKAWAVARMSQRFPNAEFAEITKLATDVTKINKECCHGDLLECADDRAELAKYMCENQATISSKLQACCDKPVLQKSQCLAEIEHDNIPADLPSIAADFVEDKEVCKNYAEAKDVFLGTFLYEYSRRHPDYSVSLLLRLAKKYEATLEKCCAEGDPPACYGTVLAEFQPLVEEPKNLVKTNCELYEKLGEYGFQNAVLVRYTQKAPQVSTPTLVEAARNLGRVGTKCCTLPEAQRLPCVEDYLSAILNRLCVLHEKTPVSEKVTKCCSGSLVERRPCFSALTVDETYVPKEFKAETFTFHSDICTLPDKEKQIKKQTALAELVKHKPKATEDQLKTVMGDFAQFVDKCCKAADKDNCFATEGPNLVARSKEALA

[5] = molecular target: T5, streptavidin (streptavidin coated plate, wells without immobilized CD5) (UniProt P22629 37-163, limits assumed); test: phage ELISA, streptavidin coated wells without immobilized CD5
T5 construct: also called control streptavidin
T5 sequence (P22629 37-163 limits assumed): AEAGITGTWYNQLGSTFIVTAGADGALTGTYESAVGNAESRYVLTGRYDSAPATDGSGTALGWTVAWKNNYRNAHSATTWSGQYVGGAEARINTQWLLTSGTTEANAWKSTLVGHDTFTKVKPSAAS

Binder | binding result [1] | binding result [3] | binding result [4] | further results
CD5 binder A1 (TRX-3 library) (designed binder) MVKQIESKTAFQEALDAAGDKLVVVDFSATQWWGWIDGQWSGPSKMIKPFFHSLSEKYSNVIFLEVDVDDAQDVASEAYPLFGMAALPTFQFFKKGQKVGEFSGANKEKLEATINELV | no binding |  |  | 
E6-aerolysin fusion protein (other, labelled with NHS-fluorescein for FACS (sites not given)) MVKQIESKTAFQEALDAAGDKLVVVDFSATNTIKHGGSRWSGPSKMIKPFFHSLSEKYSNVIFLEVDVDDAQDVASEAEKGILVSPLPTFQFFKKGQKVGEFSGANKEKLEATINELVGEIPTLSALDIPDGDEVDVQWRLVHDSANFIKPTSYLAHYLGYAWVGGNHSQYVGEDMDVTRDGDGWVIRGNNDGGCDGYRCGDKTAIKVSNFAYNLDPDSFKHGDVTQSDRQLVKTVVGWAVNDSDTPQSGYDVTLRYDTATNWSKTNTYGLSEKVTTKNKFKWPLVGETELSIEIAANQSWASQNGGSTTTSLSQSVRPTVPARSKIPVKIELYKADISYPYEFKADVSYDLTLSGFLRWGGNAWYTHPDNRPNWNHTFVIGPYKDKASSIRYQWDKRYIPGEVKWWDWNWTIQQNGLSTMQNNLARVLRPVRAGITGDFSAESQFAGNIEIGAPVPLAADSKVRRARSVDGAGQGLRLEIPLDAQELSGLGFNNVSLSVTPAANQ |  |  |  | EC50, MTS cytotoxicity assay on CD5+ Raji cells, 48 hours [2]: 132 nM
HSA binder E1 (TRX-3 library), phage-displayed (designed binder, AGPF loop 3′ motif) MVKQIESKTAFQEALDAAGDKLVVVDFSATRSENDRWNEWSGPSKMIKPFFHSLSEKYSNVIFLEVDVDDAQDVASEALIAGPFWYSPTFQFFKKGQKVGEFSGANKEKLEATINELV |  | no binding | no binding | 
CD5 binder E6 (TRX-3 library), phage-displayed (designed binder, also called E6 phage) MVKQIESKTAFQEALDAAGDKLVVVDFSATNTIKHGGSRWSGPSKMIKPFFHSLSEKYSNVIFLEVDVDDAQDVASEAEKGILVSPLPTFQFFKKGQKVGEFSGANKEKLEATINELV |  |  |  | binding result [5]: no binding
HSA binder G5 (TRX-3 library), phage-displayed (designed binder) MVKQIESKTAFQEALDAAGDKLVVVDFSATRLRTGGHPYWSGPSKMIKPFFHSLSEKYSNVIFLEVDVDDAQDVASEAVYVSLSRHRPTFQFFKKGQKVGEFSGANKEKLEATINELV |  | no binding | no binding | 
CD5 binder E10 (TRX-3 library) (designed binder) MVKQIESKTAFQEALDAAGDKLVVVDFSATKERDSAWDDWSGPSKMIKPFFHSLSEKYSNVIFLEVDVDDAQDVASEAFYWSYPSLPPTFQFFKKGQKVGEFSGANKEKLEATINELV | no binding |  |  | 
HSA binder E5 (TRX-3 library), phage-displayed (designed binder, AGPF loop 3′ motif) MVKQIESKTAFQEALDAAGDKLVVVDFSATRRNERARDWWSGPSKMIKPFFHSLSEKYSNVIFLEVDVDDAQDVASEALAAGPFYLLPTFQFFKKGQKVGEFSGANKEKLEATINELV |  | no binding | no binding | 
CD5 binder A5 (TRX-3 library) (designed binder) MVKQIESKTAFQEALDAAGDKLVVVDFSATQCNTGESHDWSGPSKMIKPFFHSLSEKYSNVIFLEVDVDDAQDVASEAWSPLIMCTMPTFQFFKKGQKVGEFSGANKEKLEATINELV | no binding |  |  | 
